Measurements: the supplement of paper PMC9233669
Variants at the floor of the assay were thinned out.

How the values were obtained:
[1] = tested on: biotinyl-Phe-oxazolone; experiment: self-aminoacylation, catalytic enhancement (BFO) (fold over background); higher = more active; k-Seq, kA / k0A0; sequences stand for … in GGGAAUGGAUCCACAUCUACGAAUUC…UUCACUGCAGACUUGACGAAGCUG
Procedure, shortened: (§1)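 Each biotinyl-aminoacyl-oxazolone, at 2–1250 μM, was incubated with mutagenized RNA pools (0.43 μM) carrying a 21-nt variable region. The 50 μL reactions contained HEPES/NaCl/KCl/MgCl2/CaCl2 buffer with 5% acetonitrile at pH 6.9–7.0 and ran for 90 minutes at room temperature. After streptavidin capture, RNA was measured by qPCR in triplicate and by Illumina sequencing, and catalytic enhancement was calculated as median kA over the uncatalyzed rate from a pseudo-first-order fit of per-sequence fraction reacted.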

[2] = tested on: biotinyl-Ile-oxazolone; experiment: self-aminoacylation, catalytic enhancement (BIO) (fold over background); higher = more active; k-Seq, kA / k0A0; sequences stand for … in GGGAAUGGAUCCACAUCUACGAAUUC…UUCACUGCAGACUUGACGAAGCUG
Procedure, shortened: as §1

[3] = tested on: biotinyl-Met-oxazolone; experiment: self-aminoacylation, catalytic enhancement (BMO) (fold over background); higher = more active; k-Seq, kA / k0A0; sequences stand for … in GGGAAUGGAUCCACAUCUACGAAUUC…UUCACUGCAGACUUGACGAAGCUG
Procedure, shortened: as §1

[4] = tested on: biotinyl-Val-oxazolone; experiment: self-aminoacylation, catalytic enhancement (BVO) (fold over background); higher = more active; k-Seq, kA / k0A0; sequences stand for … in GGGAAUGGAUCCACAUCUACGAAUUC…UUCACUGCAGACUUGACGAAGCUG
Procedure, shortened: as §1

[5] = tested on: biotinyl-Leu-oxazolone; experiment: self-aminoacylation, catalytic enhancement (BLO) (fold over background); higher = more active; k-Seq, kA / k0A0; sequences stand for … in GGGAAUGGAUCCACAUCUACGAAUUC…UUCACUGCAGACUUGACGAAGCUG
Procedure, shortened: as §1

[6] = tested on: biotinyl-Trp-oxazolone; experiment: self-aminoacylation, catalytic enhancement (BWO) (fold over background); higher = more active; k-Seq, kA / k0A0; sequences stand for … in GGGAAUGGAUCCACAUCUACGAAUUC…UUCACUGCAGACUUGACGAAGCUG
Procedure, shortened: as §1

Sequence	self-aminoacylation [1]	self-aminoacylation [2]	self-aminoacylation [3]	self-aminoacylation [4]	self-aminoacylation [5]	self-aminoacylation [6]
CUUACCCGGGUCAUCGAGUGA [Fam2.1 aminoacylation ribozyme variant]	36.5	3.03	5.92	3.48	7.48	7.34
AUUACCCGGGUCAUUGAGUGA [Fam2.1 aminoacylation ribozyme variant]	56.8	4.35	9.41	4.83	8.98	10.8
AUAACCCUUGUCAUCGAGUGA [Fam2.1 aminoacylation ribozyme variant]	21.5	3.29	6.3	3.13	6.26	7.89
ACUCACCUAGGUCAUCGCGUG [Fam2.2 aminoacylation ribozyme variant]	70	5.51	7.39	6.93	10.6	9.66
CUUCACCUAGGUCAUCGCGUG [Fam2.2 aminoacylation ribozyme variant]	96.5	7.29	12.4	8.89	13.6	10.9
GAGUUUGCUAAUAGUCGCAAG [Fam3.1 aminoacylation ribozyme variant]	22.7	1.72	1.78	1.5	1.39	7.44
AUUCACCUAGGUAAUCGGUUG [Fam2.2 aminoacylation ribozyme variant]	0.536	0.71	0.735	0.687	0.91	0.967
AUUACCCUGGUCAUGGAGGGA [Fam2.1 aminoacylation ribozyme variant]	2.1	1.82	1.83	1.76	1.86	2.23
CCACACUUGAAGCAAUCCGUC [Fam1B.1 aminoacylation ribozyme variant]	0.745	1.02	0.993	1	0.905	0.76
UUAACCCUGGUCAUCGAGUGA [Fam2.1 aminoacylation ribozyme variant]	20.2	5.63	11.7	5.9	12	11.5
AUUACCCUGCUCAUCGAGUGG [Fam2.1 aminoacylation ribozyme variant]	0.52	0.831	1	0.81	1.09	0.578
CCACACUUCAAGCAAUCGGUC [Fam1B.1 aminoacylation ribozyme variant]	59.3	1.01	0.964	1.25	1.44	23.9
AUUACCCUGGUCAUCUAGUGU [Fam2.1 aminoacylation ribozyme variant]	9.89	2.02	4.11	2.48	4.08	4.88
CCACCCUUCAAGAAAUCGGUC [Fam1B.1 aminoacylation ribozyme variant]	5.63	1.24	1.16	1.19	1.26	6.09
AUUAACCUUGGUCAUCGGGUG [Fam2.2 aminoacylation ribozyme variant]	41.7	3.91	6.37	4.16	8.28	7.04
AAGUUUGCUAAUAGUCCCAUG [Fam3.1 aminoacylation ribozyme variant]	0.885	0.978	0.887	1.13	0.89	1.19
AAGUUCGCUAAUAGUCGCUAG [Fam3.1 aminoacylation ribozyme variant]	1.34	1.48	1.53	1.4	1.47	1.45
UUACUUCAAACAAUCGGUCUG [Fam1A.1 aminoacylation ribozyme variant]	37.4	1.3	1.29	1.22	1.69	20.7
CUCCUUCAAACAAUGGGUCUG [Fam1A.1 aminoacylation ribozyme variant]	0.816	0.855	0.901	0.982	1.05	0.877
AUUACGCUGGUCAUAGAGUGA [Fam2.1 aminoacylation ribozyme variant]	7.49	2.33	3.31	2.23	3.54	4.14
CUACACUUUAAGCAAUCGGUC [Fam1B.1 aminoacylation ribozyme variant]	0.979	0.768	0.63	0.74	0.585	0.565
AUUACCGUGGUCAUCGAGAGA [Fam2.1 aminoacylation ribozyme variant]	0.92	1.11	0.605	1.18	0.723	0.794
AAGUUAGCUAACAGUCGCAAG [Fam3.1 aminoacylation ribozyme variant]	2.2	1.83	2.31	1.68	1.66	1.56
AUUCACCUAGGUGAUCGGGGG [Fam2.2 aminoacylation ribozyme variant]	21.6	5.84	4.53	4.72	5.33	7.47
CCACACUUUAAGCAAUCGGCC [Fam1B.1 aminoacylation ribozyme variant]	1.64	1.52	1.58	1.74	1.22	1.85
CCACACGUCAUGCAAUCGGUC [Fam1B.1 aminoacylation ribozyme variant]	0.974	1.18	1.26	1.34	0.972	1.61
